Results from publication PMC9632566 (Nature Communications, 2022).

Molecular target: NA of A/California/04/2009 (A/H1N1pdm09) (Influenza A virus A/California/04/2009 …, strain)
Assay: ELISA
Conditions: one partner purified

B1: DA05A30 (antibody, V domains shown)
VH: EVQLVESGAEVKKPGESLKISCQGSGYRFSSHWIVWVRQMPGKGLEWMGIIYPGDSDTRYSPSFQGQVTISTDKSNAYLQWSSLKASDTGMYYCARHPQPYGSGYYGEFDYWGQGTLVTVSS
VL: DIQMTQPPSVSGAPGQRVTISCTGSSSNIGAGYDVYWYQQFPGTAPKLLIYANDNRPSGVPDRFSGSKSGTSASLVITGLQAEDEADYYCQSYDSSLSGSVVFGGGTKLTVL
B1: binds.
